Experimental data published in patent publication US20250051454A1 (DUKE UNIVERSITY, published 2025).
Changes are numbered by the printed parent chain.

B1: CA128 (antibody, V domains shown)
VH: QVQLVQSGGGLVKPGGSLRLSCAASGFTFSDYYMSWIRQAPGKGLEWVSYISSSGSTIYYADSVKGRFTISRDNAKNSLYLQMNSLRAEDTAVYYCARDSGSFVGVFDYWGQGTLVTVSS
VL: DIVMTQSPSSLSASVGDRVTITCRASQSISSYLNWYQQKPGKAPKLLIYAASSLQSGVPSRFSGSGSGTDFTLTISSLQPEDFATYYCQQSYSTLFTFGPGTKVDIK
B2: CA131 (antibody, V domains shown)
VH: QVQLQESGSGLVKPSQTLSLTCAVSGGSISSGGYSWSWIRQPPGKGLEWIGYIYHSGSTYYNPSLKSRVTISVDRSKNQFSLKLSSVTAADTAVYYCATGGGHKELGGWGPRGTLVTVSS
VL: not shown
B3: CA124 (antibody, V domains shown)
VH: EVQLVQSGGGLVKPGGSLRLSCAASGFTFSDYYMSWIRQAPGKGLEWVSYISSSGSTIYYADSVKGRFTISRDNAKNSLYLQMNSLRAEDTAVYYCASGFSSWGADDYWGQGTLVTVSS
VL: DIVMTQSPSSLSASVGDRVTITCRASQGISNYLAWFQQKPGKAPKSLIYAASSLQSGVPSKFSGSGSGTDFTLTISSLQPEDFATYYCQQYNSYPLTFGQGTKLEIK
B4: CA139 (antibody, V domains shown)
VH: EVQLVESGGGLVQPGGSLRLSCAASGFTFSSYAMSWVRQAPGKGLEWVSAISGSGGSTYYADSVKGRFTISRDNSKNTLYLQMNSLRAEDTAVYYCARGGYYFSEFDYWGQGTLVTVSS
VL: B3 VL with Q100G, L104V
B5: CA118 (antibody, V domains shown)
VH: EVQLVESGGGLVKPGGSLRLSCAASGFTFSSYSMNWVRQAPGKGLEWVSSISSSSSYIYYADSVKGRFTISRDNAKNSLYLQMNSLRAEDTAVYYCARGWQQLAYWDYWGQGTLVTVSS
VL: SYELTQPPSVSVAPGQTARITCGGNNIGSKSVHWYQQKPGQAPVLVVYDDSDRPSGIPERFSGSNSGNTATLTISRVEAGDEADYYCQVWDSSSDHYVFGTGTKVTVL
B6: CA141 (antibody, V domains shown)
VH: QVQLQESGGGLVKPGGSLRLSCAASGFTFSSYSMNWVRQAPGKGLEWVSSISSSSSYIYYADSVKGRFTISRDNAKNSLYLQMNSLRAEDTAVYYCARASENGDDAFDIWGQGTMVTVSS
VL: EIVLTQSPATLSLSPGERATLSCRASQSVSSYLAWYQQKPGQAPRLLIYDASNRATGIPARFSGSGSGTDFTLTISSLEPEDFAVYYCQQRSNWPPYTFGQGTKLEIK
B7: CA149 (antibody, V domains shown)
VH: EVQLVESGGGLVKPGGSLRLSCAASGFTFSSYSMNWVRQAPGKGLEWVSSISSSSSYIYYADSVKGRFTISRDNAKNSLYLQMNSLRAEDTAVYYCARCAAGFVPDAFDIWGQGTMVTVSS
VL: not shown
B8: CA171 (antibody, V domains shown)
VH: B7 VH with K13Q, S50Y, Y57T, C99T, A100F, A101Y, G102S, F103N, V104Y, P105L
VL: EIVLTQSPDTLSMCPGERATLSCRASQSVSSYLAWYQQKPGQAPRLLIYDASNRATGIPARFSGSGSGTDFTLTISSLEPEDFAVYYCQQRSNWLSMYTFGQGTKLEIK
B9: CA125 (antibody, V domains shown)
VH: B7 VH with C99V, A100V, A101D, G102T, F103A, V104M, P105G
VL: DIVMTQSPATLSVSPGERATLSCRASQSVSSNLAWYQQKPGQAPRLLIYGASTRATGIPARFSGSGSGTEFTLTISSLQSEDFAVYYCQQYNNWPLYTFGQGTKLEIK
B10: CA134 (antibody, V domains shown)
VH: EVQLVESGGGLVKPGGSLRLSCAASGFTFSSYSMNWVRQAPGKGLEWVSSISSSSSYIYYADSVKGRFTISRDNAKNSLYLQMNSLRAEDTAVYYCARVFGEQLVSFFDYWGQGTLVTVSS
VL: not shown

These binders were tested against T1, HLA-E-RL9HIV single chain trimer on transfected 293T cells (human, UniProt P61769 21-119; P13747 22-358) (assay: flow cytometry, SCT-transfected 293T cells, MFI bar chart [E]).
T1 construct: also called control HLA-E-peptide complex

Does B1 bind?
Result: no binding (tested: 2 µg/ml)

Does B2 bind?
Result: no binding (tested: 2 µg/ml)

Does B3 bind?
Result: no binding (tested: 2 µg/ml)

Does B4 bind?
Result: no binding (tested: 2 µg/ml)

Does B5 bind?
Result: no binding (tested: 2 µg/ml)

Does B6 bind?
Result: no binding (tested: 2 µg/ml)

Does B7 bind?
Result: no binding (tested: 2 µg/ml)

Does B8 bind?
Result: no binding (tested: 2 µg/ml)

Does B9 bind?
Result: no binding (tested: 2 µg/ml)

Does B10 bind?
Result: no binding (tested: 2 µg/ml)

These binders were tested against T2, HLA-E-RL9SIV single chain trimer on transfected 293T cells (human, UniProt P61769 21-119; P13747 22-358) in the same assay as above.
T2 construct: also called control HLA-E-peptide complex

Does B1 bind?
Result: no binding (tested: 2 µg/ml)

Does B2 bind?
Result: no binding (tested: 2 µg/ml)

Does B3 bind?
Result: no binding (tested: 2 µg/ml)

Does B4 bind?
Result: no binding (tested: 2 µg/ml)

Does B5 bind?
Result: no binding (tested: 2 µg/ml)

Does B6 bind?
Result: no binding (tested: 2 µg/ml)

Does B7 bind?
Result: no binding (tested: 2 µg/ml)

Does B9 bind?
Result: no binding (tested: 2 µg/ml)

Does B10 bind?
Result: no binding (tested: 2 µg/ml)
